Laboratory results taken from WO2010082134A1 (dated 2010).

T1: B. anthracis lethal factor (LF) (Bacillus anthracis, UniProt P15917 34-809)
T1 sequence: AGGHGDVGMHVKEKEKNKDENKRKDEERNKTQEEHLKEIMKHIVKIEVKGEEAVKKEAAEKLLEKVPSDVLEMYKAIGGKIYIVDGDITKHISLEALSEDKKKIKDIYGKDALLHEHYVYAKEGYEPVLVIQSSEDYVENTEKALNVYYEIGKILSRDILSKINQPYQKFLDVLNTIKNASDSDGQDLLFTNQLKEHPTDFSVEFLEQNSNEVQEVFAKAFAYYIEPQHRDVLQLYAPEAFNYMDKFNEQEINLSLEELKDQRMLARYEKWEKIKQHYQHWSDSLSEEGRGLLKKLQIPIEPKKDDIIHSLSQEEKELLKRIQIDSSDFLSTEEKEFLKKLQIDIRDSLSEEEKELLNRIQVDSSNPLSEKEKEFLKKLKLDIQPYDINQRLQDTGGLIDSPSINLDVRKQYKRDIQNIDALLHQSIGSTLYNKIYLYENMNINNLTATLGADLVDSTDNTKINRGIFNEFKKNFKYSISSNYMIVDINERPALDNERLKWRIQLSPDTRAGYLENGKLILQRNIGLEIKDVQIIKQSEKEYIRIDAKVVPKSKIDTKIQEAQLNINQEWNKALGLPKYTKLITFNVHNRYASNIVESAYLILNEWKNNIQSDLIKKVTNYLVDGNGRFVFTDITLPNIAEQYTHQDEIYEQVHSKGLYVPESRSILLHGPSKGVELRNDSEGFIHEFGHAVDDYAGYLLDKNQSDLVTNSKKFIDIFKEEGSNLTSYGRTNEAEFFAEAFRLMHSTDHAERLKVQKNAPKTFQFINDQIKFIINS

B1: human monoclonal antibody IQNLF (antibody, V domains shown)
VH: EVQLLESGGGLVQPGGSLRLSCSGSGFMFSSYAMSWVRQAPGKGLEWVSGISGSGGTTNYADSVKGRFTISRDNSKNTLYMQMNSLRAEDTAVYYCAKDGVYGRLGGSDYWGQGTLVTVSS
VL: EIVLTQSPDFQSVSPKEKVTITCRASQSVGSSLHWYQQKPDQSPKLLIKYASQSFSGVPSRFSGSGSGTDFTLTINSLETEDAATYYCHQSSSLPLTFGGGTKVEIKR
B2: human monoclonal antibody IQNPA (antibody, V domains shown)
VH: QVQLVQSGAEVKKPGASVKVSCKASGYTFTSNAIQWVRQAPGQRLEWVGWINGGDGNTKYSQKFQGRVTISRDISASTAYMELSSLRSEDTAVYYCARHRLQRGGFDPWGQGTLVTVSS
VL: EIVLTQSPGTLSLSPGERATLSCRASQSVSYSSLAWYQQKPGQAPSLLIYGASSRATGIPDRFSGSGSGPDFTLTISRLEPEDFAVYYCQHYGNSPYTFGQGTKLEIKR

Assays:
[1] = target: T1, B. anthracis lethal factor (LF); experiment: hybridoma screening by ELISA for anti-LF antibodies
[2] = target: B. anthracis protective antigen (PA) (Bacillus anthracis, UniProt P13423 30-764); experiment: hybridoma screening by ELISA for anti-PA antibodies
B. anthracis protective antigen (PA), sequence (P13423 30-764 limits assumed): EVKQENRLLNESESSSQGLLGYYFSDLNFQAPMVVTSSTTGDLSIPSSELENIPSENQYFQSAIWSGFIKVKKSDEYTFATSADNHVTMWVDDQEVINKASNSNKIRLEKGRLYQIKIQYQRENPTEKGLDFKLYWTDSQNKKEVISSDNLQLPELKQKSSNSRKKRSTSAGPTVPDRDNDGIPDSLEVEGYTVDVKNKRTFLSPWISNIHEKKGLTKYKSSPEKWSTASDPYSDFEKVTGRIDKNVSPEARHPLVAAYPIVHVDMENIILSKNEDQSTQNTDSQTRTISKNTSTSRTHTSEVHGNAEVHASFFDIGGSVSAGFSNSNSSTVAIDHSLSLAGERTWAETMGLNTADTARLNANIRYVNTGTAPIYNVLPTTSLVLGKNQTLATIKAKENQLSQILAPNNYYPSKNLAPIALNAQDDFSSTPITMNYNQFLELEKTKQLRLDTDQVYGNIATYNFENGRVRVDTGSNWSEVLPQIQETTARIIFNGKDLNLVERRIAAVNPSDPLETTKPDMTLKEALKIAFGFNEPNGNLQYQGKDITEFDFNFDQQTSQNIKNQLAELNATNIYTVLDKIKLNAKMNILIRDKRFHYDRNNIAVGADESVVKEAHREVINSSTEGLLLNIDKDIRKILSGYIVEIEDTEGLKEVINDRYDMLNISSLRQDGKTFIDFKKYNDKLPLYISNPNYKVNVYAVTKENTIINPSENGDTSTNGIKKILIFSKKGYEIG

Row | Binder | binding result [1] | binding result [2]
1 | B1 | binds | –
2 | B2 | – | binds
